# Assay results published in patent US20160097044A1, “Antimicrobial Enzyme Fusions Reduce Resistance and Kill Intracellular Staphylococcus aureus” (The United States of America, as Represented by the …, priority 2014, published 2016).
# Entries after “also recorded” stand apart in the source; their conditions may differ.
# B1: L-K: LysK lytic domains inserted between lysostaphin's M23 endopeptidase domain and SH3b cell wall binding domain; SEQ ID NO:7, protein SEQ ID NO:8 (protein)
# chain: MAATHEHSAQWLNNYKKGYGYGPYPLGINGGMHYGVDFFMNIGTPVKAISSGKIVEAGWSNYGGGNQIGLIENDGVHRQWYMHLSKYNVKVGDYVKAGQIIGWSGSTGYSTAPHLHFQRMVNSFSNSTAQDPMPFLKSAGYGKAGGTVTPTPNTGLDAKTQAEINKRLDAYAKGTVDSPYRVKKATSYDPSFGVMEAGAIDADGYYHAQCQDLITDYVLWLTDNKVRTWGNAKDQIKQSYGTGFKIHENKPSTVPKKGWIAVFTSGSYEQWGHIGIVYDGGNTSTFTILEQNWNGYANKKPTKRVDNYYGLTHFIEIPVKAGTTVKKETAKKSASKTPAPKKKATLKVSKNHINYTMDKRGKKPEGMVIHNDAGRSSGQQYENSLANAGYARYANGIAHYYGSEGYVWEAIDAKNQIAWHTGDGTGANSGNFRFAGIEVCQSMSASDAQFLKNEQAVFQFTAEKFKEWGLTPNRKTVRLHMEFVPTACPHRSMVLHTGFNPVTQGRPSQAIMNKLKDYFIKQIKNYMDKGTSSSTVVKDGKTSSASLDTVTPTPNTGWKTNKYGTLYKSESASFTPNTDIITRTTGPFRSMPQSGVLKAGQTIHYDEVMKQDGHVWVGYTGNSGQRIYLPVRTWNKSTNTLGVLWGTIKLEHHHHHH
# modifications: Staphylococcus simulans & Phage K
# How the values were obtained:
# [1] = tested on: live S. aureus strain Newman cells; test: Turbidity reduction assay; type: cell-based; conditions: 30 minute assay, 150 mM NaCl in SLB, FIG. 3d
# Text: FIGS. 3a-3d depict peptidoglycan hydrolase purity and the S. aureus bactericidal assay. […] FIG. 3b is a zymogram analysis using whole S. aureus (Newman) cells embedded within the gel matrix. FIG. 3c is a plate lysis analysis of peptidoglycan hydrolase constructs using live S. aureus (Newman) cell lawns clarified with indicated picomoles of each purified peptidoglycan hydrolase. FIG. 3d is a turbidity reduction analysis showing the linear range of enzyme concentration. A twofold dilution series of each enzyme was used in a 30 minute turbidity reduction assay on live S. aureus strain Newman cells to determine the enzyme concentrations that are within the linear range for each enzyme. Reaction conditions were 150 mM NaCl in SLB. Black, dark grey, light grey, and white bars represent peptidoglycan hydrolase constructs lysostaphin (L), LysK (K), triple fusion K-L, and triple fusion L-K, respectively, as named in FIG. 1a. Values are reported as the maximum rate ΔOD600nm/min±SEM.
# SDS-PAGE, zymogram, turbidity reduction and plate lysis assays were performed as described previously (Becker et al. 2009, supra) with minor modifications as follows. For SDS-PAGE and zymogram analysis, one μg of the purified peptidoglycan hydrolase proteins and Kaleidoscope protein standards (Invitrogen, Carlsbad, Calif.) were analyzed by 15% SDS-PAGE. […]
# [2] = tested on: S. aureus Newbould 305; test: Turbidity reduction assay; type: cell-based; conditions: 1 μM enzyme, cells at OD600nm 1.0, FIG. 6a
# Protocol: (§1) FIG. 6a depicts the specific activity of peptidoglycan hydrolase fusion constructs in vitro in a turbidity reduction assay with S. aureus Newbould 305 resuspended in lysis buffer to an OD600nm of 1.0 and treated with 1 μM final concentrations of each peptidoglycan hydrolase. The maximum specific activity for three experiments are represented as an average with SEM error bars. FIG. 6b depicts the bacterial burden in mice with mastitis treated with recombinant peptidoglycan hydrolases. Colony Forming Units (CFUs) from infected murine mammary glands following a single treatment with 50 μl of 25 μM peptidoglycan hydrolase (1.25 nmol). Each data point represents the average of duplicate bacterial platings. The horizontal bars represent the average CFU/mg for each group. FIG. 6c illustrates the TNFα response in mice with mastitis that were treated with peptidoglycan hydrolases. Data represents a minimum of 7 measurements in duplicate. Log TNFα was used for statistical analysis. Single asterisks indicate a significant difference from buffer control (p<0.05); double asterisks indicate a significant difference from the parental enzyme (p<0.05).
# FIG. 7 depicts a turbidity reduction assay of select peptidoglycan hydrolases against S. aureus Newbould 305. Bacterial cells were resuspended in lysis buffer to an OD600nm of 1.0 and lysed with 1 μM final concentrations of each peptidoglycan hydrolase. The maximum rate of ΔOD of three experiments are represented as an average with error bars representing SEM. Double asterisks indicate significant difference from parental. Mean comparisons were performed with one way ANOVA (P=3.3×10^−5) with t test post hoc analysis with Sidák adjusted alpha (p<0.01).
# [3] = tested on: S. aureus Newbould 305; test: Murine model of mastitis, bacterial load; type: in vivo, C57BL6/SJL mice; conditions: single 1.25 nmoles intramammary infusion 30 minutes post infection, 18 h
# Protocol: as §1
# To evaluate the efficacy of purified, individually administered peptidoglycan hydrolases in a murine model of bovine mastitis, female C57BL6/SJL mice were challenged by the intramammary route with 100 CFU S. aureus Newbould 305 in 50 μl buffer. A single 1.25 nmoles intramammary infusion of each desired peptidoglycan hydrolase (50 μl of a 25 μM solution) or 50 μl PBS was given 30 minutes post infection [with up to six glands treated per animal, each gland receiving a unique treatment] as described earlier (Schmelcher et al. 2012. Appl. Environ. Microbiol. 78:2297-2305; Kerr et al. 2001. Nat. Biotechnol. 19:66-70). Dams were euthanized 18 h post infusion, the mammary glands were aseptically dissected, and portions of the gland were used for determination of bacterial load and TNFα concentrations, as described previously (Schmelcher et al., supra).
# Statistical analysis: The variables were analyzed as two-factor mixed models with Treatment as the factor and Mouse as random Blocks. This model […] within mouse correlations. Log(TNFα) was used. The variance grouping technique was used for log CFU and log TNFα to correct for variance heterogeneity. Means comparisons were done with Sidak adjusted p-values so that the experiment-wise error was 0.05. Log(TNFα) is back-transformed to the original units for graphing.
# [4] = tested on: post-treatment isolates of S. aureus ALR; test: Resistance of isolates recovered from nares of treated rats (plate lysis, MIC); type: cell-based
# Protocol: The Minimum Inhibitory Concentrations (MIC) of each protein for multiple S. aureus strains was determined as previously described (Jones et al. 1985. In: Manual of Clinical Microbiology, Eds. Balows et al. American Society of Microbiology, Washington D.C., pp. 972-977) with the following modifications. Enzymes were serially diluted two fold across a 96 well plate, such that after dilution, 50 μl of the enzyme solution in 300 mM NaCl, 50 mM NaH2PO4, 30% glycerol pH 7.5, remained in each well. To each well was added 50 μl of TSB and 100 μl of S. aureus Newman in TSB (diluted to 5×10^6 cells/ml). The plates were incubated 20 h at 37° C. and read with a 96 well plate reader. MIC determination values were reported as the median of ≧4 replicates (Table 1).
molecule,measurement,setting,value
"K-L: both LysK lytic domains fused to the N-terminus of lysostaphin; SEQ ID NO:5, protein SEQ ID NO:6",turbidity reduction activity compared to parental enzymes,[1],as effective as the parental peptidoglycan hydrolases
same,turbidity reduction (in vitro lytic) activity,[2],slightly more effective at lysing S. aureus strain Newbould 305 than lysostaphin
same,bacterial load / clearance of mammary glands (in words),[3],not able to clear the mammary gland bacterial infection more than buffer alone
"L: 247 amino acid mature (secreted) lysostaphin, staphylolytic bacteriocin, C-terminal His6 tag; SEQ ID NO:1 [reference compound]",reduction of bacterial load in mammary glands compared to controls,[3],approximately 4 logs
B1,MIC of 8 post-treatment isolates,"[4]; isolates from rats treated with triple fusion L-K, N=32",7.0 ± 2.4 µg/mL
same,resistance of colonies recovered from nares of treated rats,"[4]; plate lysis analysis, N=22 colonies",not more resistant than the parental strain; also recorded: no in vivo resistance development detected
same,turbidity reduction activity compared to parental enzymes,[1],as effective as the parental peptidoglycan hydrolases
